Results on 2 molecules are retold here after patent publication US20110311515A1.

Substrate in the assay: F protein of RSV (hRSV strain Long LM-2) (hRSV strain Long) (UniProt P12568)
Description: cell-based or functional assay.

F protein of RSV (hRSV strain Long LM-2) (hRSV strain Long), sequence (P12568 26-574): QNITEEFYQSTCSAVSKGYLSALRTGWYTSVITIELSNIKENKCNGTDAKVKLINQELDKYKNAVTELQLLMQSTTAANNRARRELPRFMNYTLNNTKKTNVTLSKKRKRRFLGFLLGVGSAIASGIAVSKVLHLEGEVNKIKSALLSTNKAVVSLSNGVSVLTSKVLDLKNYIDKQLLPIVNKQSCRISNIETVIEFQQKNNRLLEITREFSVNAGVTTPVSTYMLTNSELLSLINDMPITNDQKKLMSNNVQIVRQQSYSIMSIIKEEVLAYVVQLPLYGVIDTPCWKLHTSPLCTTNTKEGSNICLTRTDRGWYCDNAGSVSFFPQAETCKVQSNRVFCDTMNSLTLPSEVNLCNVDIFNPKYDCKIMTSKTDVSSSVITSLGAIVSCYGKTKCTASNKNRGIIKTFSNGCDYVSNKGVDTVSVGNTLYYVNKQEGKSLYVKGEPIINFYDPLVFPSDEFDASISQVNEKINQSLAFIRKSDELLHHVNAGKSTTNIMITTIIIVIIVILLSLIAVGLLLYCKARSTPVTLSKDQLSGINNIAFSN

B1: building block of RSV407 (monovalent Nanobody) (VHH)
VHH: EVQLVESGGGLVQAGGSLSISCAASGGSLSNYVLGWFRQAPGKEREFVAAINWRGDITIGPPNVEGRFTISRDNAKNTGYLQMNSLAPDDTAVYYCGAGTPLNPGAYIYDWSYDYWGRGTQVTVSS
With B1, the IC50, neutralization of RSV infection, Long strain is 50 to 100 nM.

B2: RSV407 (VHH)
chain: EVQLVESGGGLVQAGGSLSISCAASGGSLSNYVLGWFRQAPGKEREFVAAINWRGDITIGPPNVEGRFTISRDNAKNTGYLQMNSLAPDDTAVYYCGAGTPLNPGAYIYDWSYDYWGRGTQVTVSSGGGGSGGGGSGGGGSEVQLVESGGGLVQAGGSLSISCAASGGSLSNYVLGWFRQAPGKEREFVAAINWRGDITIGPPNVEGRFTISRDNAKNTGYLQMNSLAPDDTAVYYCGAGTPLNPGAYIYDWSYDYWGRGTQVTVSSGGGGSGGGGSGGGGSEVQLVESGGGLVQAGGSLSISCAASGGSLSNYVLGWFRQAPGKEREFVAAINWRGDITIGPPNVEGRFTISRDNAKNTGYLQMNSLAPDDTAVYYCGAGTPLNPGAYIYDWSYDYWGRGTQVTVSSAAAEQKLISEEDLNGAAHHHHHH
Take B2: the IC50, neutralization of RSV infection, Long strain was found to be 0.1 nM.
